Experimental data from patent publication CN114349861A (HUAOTSU BALL; JIANGSU INST OF TARGET BIOMEDICINE CO LTD, dated 2022).

Biological target: T1, 人PD1蛋白 (human, UniProt Q15116 25-170)
T1 construct: extracellular domain; also called PD1(人); PD1(胞外段)蛋白
Assay: non-competitive ELISA at three PD1 coating concentrations; Beatty formula, mean of three K values

T1 sequence (Q15116 25-170): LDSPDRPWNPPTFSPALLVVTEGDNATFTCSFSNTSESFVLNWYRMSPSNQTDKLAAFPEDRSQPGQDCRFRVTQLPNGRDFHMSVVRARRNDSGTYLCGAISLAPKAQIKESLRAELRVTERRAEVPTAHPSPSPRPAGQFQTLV

B1: 抗PD1-VHH1 (VHH)
VHH: QVQLVESGGGSVQAGGSLRLSCAASGYASSSYSMGWFRQAPGKEREAVAGVNRDGSTRYADSVKGRFTISKDNAKNTLYLQMNSLKPEDTAMYYCAADRGWLPRRPDYWGQGTQVTVSS
notes: Camel (dromedary) VHH selected from a T7 phage library; The soluble protein was expressed from pET32a in E. coli BL21(DE3) and purified on Ni-IDA; The specificity ELISA detected it with an anti-HA antibody; also called 抗PD1Nb1; antiPD1Nb
Ka: 8.2e+06 M⁻¹
